In paper PMC5769749 one finds PLA spots per cell (spots per cell) data, which are given here for 1 substance.

The target of this assay is NC-RLuc (HIV-1 nucleocapsid fused to Renilla luciferase), expressed in HeLa cells (HIV-1). Put plainly: proximity ligation.

“Staufen1-YFP (from UniProt O95793-2 1-496) (natural protein)”: the PLA spots per cell (spots per cell) came to 103.
